Experimental data as given in publication PMC9547787.

What was measured:
[1] = target: BAZ2A; assay: BioID (streptavidin pulldown, LC-MS/MS); settings: Flp-In T-Rex HEK293 cells; parent: est. 220; read off a plot
[2] = target: MBD3; assay: BioID (streptavidin pulldown, LC-MS/MS); settings: Flp-In T-Rex HEK293 cells; parent: est. 41; read off a plot
[3] = target: MBD4; assay: BioID (streptavidin pulldown, LC-MS/MS); settings: Flp-In T-Rex HEK293 cells; parent: est. 14; read off a plot
[4] = target: MECP2; assay: BioID (streptavidin pulldown, LC-MS/MS); settings: Flp-In T-Rex HEK293 cells; parent: est. 17; read off a plot
[5] = target: SUV39H2 (UniProt Q9H5I1); assay: proximity ligation assay (PLA); settings: MO3.13 cells; n: EV = 14; H3.1WT = 36; H3.1K27M = 67; H3.3WT = 60; H3.3K27M = 62; parent: est. 1.2; read off a plot
Chain of UniProt Q9H5I1 (Q9H5I1 whole entry): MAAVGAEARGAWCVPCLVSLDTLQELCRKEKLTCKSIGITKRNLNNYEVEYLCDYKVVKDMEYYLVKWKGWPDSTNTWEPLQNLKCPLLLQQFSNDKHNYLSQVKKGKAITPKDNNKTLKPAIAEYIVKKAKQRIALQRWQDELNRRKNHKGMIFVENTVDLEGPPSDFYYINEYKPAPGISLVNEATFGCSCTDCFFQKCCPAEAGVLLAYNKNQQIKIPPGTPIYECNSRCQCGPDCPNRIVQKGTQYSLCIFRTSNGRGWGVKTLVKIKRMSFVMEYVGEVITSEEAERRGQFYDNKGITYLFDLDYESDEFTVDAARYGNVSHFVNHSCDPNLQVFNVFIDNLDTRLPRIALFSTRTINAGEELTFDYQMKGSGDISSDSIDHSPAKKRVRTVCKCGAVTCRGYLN

response (peptide count) [1]	response (peptide count) [2]	response (peptide count) [3]	response (peptide count) [4]	response (relative foci (relative to H3.3WT)) [5]	Substance
83	23	13	4.1	–	H3.3WT (FLAG-BirA* fusion, BioID bait) (from UniProt P84243) G34R
–	–	–	–	0.54	H3.1WT-FLAG/HA (from UniProt P68431) K27M
